Reference: patent US7834144B2 (priority 2005, dated 2010)
Like-named read-outs stand apart in the source and are kept apart here. Where no end group is shown, it is not given here. [ ]: non-standard residue; d: D form. Nab = not defined here; Nbn = not defined here

Key:
PrP^Sc [1] = target: T1, PrP^Sc (Homo sapiens, UniProt P04156)
PrP^Sc [2] = target: T1, PrP^Sc; type: binding
PrPc [3] = target: T2, PrPc (Homo sapiens, UniProt P04156); type: binding
PrPc [4] = target: T2, PrPc; details: Table 15
PrP^Sc [5] = target: T1, PrP^Sc; remark: listed apart in the source
PrP^Sc [6] = target: T1, PrP^Sc; details: folded PrP^Sc pulled down by XIIb
PrP^Sc [7] = target: T1, PrP^Sc; details: Table 15
[8] = Table 7, covalently bound to magnetic beads, 70% human plasma
[9] = 15 μl GdnSCN 3M, pH 5.9, 210 μl H20, final pH 6.0
[10] = H3PO4 (50 μl) 0.00007M, pH 4, NaOH (25 μl) 0.0031N
[11] = H3PO4 (50 μl) 0.00075M, pH 3, NaOH (25 μl) 0.031N
[12] = H3PO4 (50 μl) 0.12M, pH 2, NaOH (25 μl) 0.31N
[13] = H3PO4 (50 μl) 0.5M, pH 1, NaOH (25 μl) 3.1N

With “Peptoid Reagent XIIb: peptoid reagent comprising SEQ ID NO: 240, Nab-Nab-Nab-Nbn-Nab-Nbn, covalently bound to magnetic beads ([Nab][Nab][Nab][Nbn][Nab][Nbn]; reading uncertain; also: covalently bound to magnetic beads, printed as Nab-Nab-Nab-Nbn-Nab-Nbn)” the “vCJD BH (RLU) ave, Pulldown” value (PrP^Sc [1]; 10 nL of 10% vCJD BH in 50% pooled normal human plasma, XIIb-beads, 0.1N NaOH) was 53.0 RLU, the pulldown efficiency (PrP^Sc [1]; pulldown signal vs directly GdnSCN-denatured 10 nL 10% vCJD sample) was ~100% and the Mean (PrP^Sc [2]; [8]) was 174.3. For the same substance, the “Mean (% of 68)” value (PrP^Sc [2]; [8]) was 126.4%, the Mean binding (PrP^Sc [2]; Table 10, 0.833 nL human vCJD 10% brain homogenate, 70% human plasma, covalently attached to beads) was 49.2 and the Mean binding (PrP^Sc [2]; Table 10, 2.5 nL human vCJD 10% brain homogenate, 70% human plasma, covalently attached to beads) was 57.3. For the same substance, the Mean binding (PrP^Sc [2]; Table 10, 7.5 nL human vCJD 10% brain homogenate, 70% human plasma, covalently attached to beads) was 121.1, the Mean binding (PrP^Sc [2]; Table 11, TBSTT with 70% Human Plasma containing 20 nL 10% human CJD brain homogenate) was 1390.8 and the “Mean (% of Control)” value (PrP^Sc [2]; Table 13, Control Human Plasma) was 100.0%. For the same substance, the “Mean (% of Control)” value (PrP^Sc [2]; Table 13, Human Plasma lot KC011886) was 132.78%, the “Mean (% of Control)” value (PrP^Sc [2]; Table 13, Human Plasma lot KC011892) was 127.51% and the “Mean (% of Control)” value (PrP^Sc [2]; Table 13, Human Plasma lot KC28719) was 126.03%. The “Mean (% of Control)” value (PrP^Sc [2]; Table 13, Human Plasma lot KC032907) was 125.02%, the Mean (PrP^Sc [2]; Table 13, bound directly to magnetic beads, Control Human Plasma) was 154.99 and the Mean (PrP^Sc [2]; Table 13, bound directly to magnetic beads, Human Plasma lot KC011886) was 205.80. The Mean (PrP^Sc [2]; Table 13, bound directly to magnetic beads, Human Plasma lot KC011892) was 197.63, the Mean (PrP^Sc [2]; Table 13, bound directly to magnetic beads, Human Plasma lot KC28719) was 195.33 and the Mean (PrP^Sc [2]; Table 13, bound directly to magnetic beads, Human Plasma lot KC032907) was 193.77. The Mean binding (PrPc [3]; Table 10, 15 nL 10% normal human brain homogenate, 70% human plasma, covalently attached to beads) was 13.2, the Mean binding (PrPc [3]; Table 11, TBSTT with 70% Human Plasma) was 269.5 and the Mean binding (PrPc [3]; Table 11, TBSTT with 70% Human Plasma containing 20 nL 10% normal human brain homogenate) was 306.4. For the same substance, the “AVE Plasma” value (PrPc [4]; [9]) was 37.7, the “AVE Plasma” value (PrPc [4]; 70 μl TBST, pH 7.5) was 11.8 and the “AVE Plasma” value (PrPc [4]; [10]) was 26.8. For the same substance, the “AVE Plasma” value (PrPc [4]; [11]) was 25.8, the “AVE Plasma” value (PrPc [4]; [12]) was 92.7 and the “AVE Plasma” value (PrPc [4]; [13]) was 30.4. The “AVE Plasma” value (PrPc [4]; NaOH (50 μl) 0.0001M, pH 10, NaH2PO4 (20 μl) 0.0003M) was 197.6, the “AVE Plasma” value (PrPc [4]; NaOH (50 μl) 0.001M, pH 11, NaH2PO4 (20 μl) 0.003M) was 14.6 and the “AVE Plasma” value (PrPc [4]; NaOH (50 μl) 0.1M, pH 12, NaH2PO4 (20 μl) 0.03M) was 16.1. The “AVE Plasma” value (PrPc [4]; NaOH (50 μl) 0.1M, pH 13, NaH2PO4 (20 μl) 0.3M) was 15.1, the “Avg LU, 3F4 Plate” value (PrP^Sc [5]; vCJD 0 nL BH/asy (background)) was 4.55 LU and the “Avg LU, C17 Plate” value (PrP^Sc [5]; vCJD 0 nL BH/asy (background)) was 45.56 LU. The “S/N, 3F4 Plate” value (PrP^Sc [5]; vCJD 0 nL BH/asy (background)) was 1.0, the “S/N, C17 Plate” value (PrP^Sc [5]; vCJD 0 nL BH/asy (background)) was 1.0 and the “Avg LU, 3F4 Plate” value (PrP^Sc [5]; vCJD 1 nL BH/asy) was 8.90 LU. The “Avg LU, C17 Plate” value (PrP^Sc [5]; vCJD 1 nL BH/asy) was 50.75 LU, the “S/N, 3F4 Plate” value (PrP^Sc [5]; vCJD 1 nL BH/asy) was 2.0 and the “S/N, C17 Plate” value (PrP^Sc [5]; vCJD 1 nL BH/asy) was 1.1. The “Avg LU, 3F4 Plate” value (PrP^Sc [5]; vCJD 5 nL BH/asy) was 19.34 LU, the “Avg LU, C17 Plate” value (PrP^Sc [5]; vCJD 5 nL BH/asy) was 74.71 LU and the “S/N, 3F4 Plate” value (PrP^Sc [5]; vCJD 5 nL BH/asy) was 4.3. For the same substance, the “S/N, C17 Plate” value (PrP^Sc [5]; vCJD 5 nL BH/asy) was 1.6, the “S/N, 3F4 Plate” value (PrP^Sc [5]; vCJD 10 nL BH/asy) was 13.2 and the “S/N, C17 Plate” value (PrP^Sc [5]; vCJD 10 nL BH/asy) was 2.7. For the same substance, the “Avg LU, 3F4 Plate” value (PrP^Sc [5]; vCJD 10 nL BH/asy, 3F4 capture, C2-AP detection) was 60.07 LU, the “Avg LU, C17 Plate” value (PrP^Sc [5]; vCJD 10 nL BH/asy, C17 capture, C2-AP detection) was 124.18 LU and the “GdnHCl1/2 (GdnHCl concentration at half-maximal denaturation)” value (PrP^Sc [6]; sCJD brain homogenate) was 2.0 M. For the same substance, the “GdnHCl1/2 (GdnHCl concentration at half-maximal denaturation)” value (PrP^Sc [6]; vCJD brain homogenate) was 1.6 M, the S/N (PrP^Sc [7]; 15 μl GdnSCN 3M, pH 5.9) was 11 and the “AVE vCJD + Plasma” value (PrP^Sc [7]; [9]) was 430.4. For the same substance, the “AVE vCJD + Plasma” value (PrP^Sc [7]; 70 μl TBST, pH 7.5) was 25.5, the S/N (PrP^Sc [7]; 70 μl TBST, pH 7.5) was 2 and the S/N (PrP^Sc [7]; H3PO4 0.00007M, pH 4) was 1. The S/N (PrP^Sc [7]; H3PO4 0.00075M, pH 3) was 1, the S/N (PrP^Sc [7]; H3PO4 0.12M, pH 2) was 1 and the S/N (PrP^Sc [7]; H3PO4 0.5M, pH 1) was 9. For the same substance, the “AVE vCJD + Plasma” value (PrP^Sc [7]; [10]) was 27.0, the “AVE vCJD + Plasma” value (PrP^Sc [7]; [11]) was 26.6 and the “AVE vCJD + Plasma” value (PrP^Sc [7]; [12]) was 122.5. The “AVE vCJD + Plasma” value (PrP^Sc [7]; [13]) was 264.0 and the S/N (PrP^Sc [7]; NaOH 0.0001M, pH 10) was 0.
